*1 amine or outer side, *2 acyl side, *3 side chain or, on linkers, in order; H or OH if unused. Bridges are numbered along the chain shown (N, C = ends). Where no end group is shown, it is not given here. [ ]: non-standard residue; d: D form. TATA = O=C(CC[*:1])N1CN(C(=O)CC[*:2])CN(C(=O)CC[*:3])C1; 1Nal = N[C@@H](Cc1cccc2ccccc12)C(=O)O; 2Nal = N[C@@H](Cc1ccc2ccccc2c1)C(=O)O; Hyp = O=C(O)[C@@H]1C[C@@H](O)CN1; dCya = N[C@H](CS(=O)(=O)O)C(=O)O; hArg = N=C(N)NCCCC[C@H](N)C(=O)O; Agb = N=C(N)NCC[C@H](N)C(=O)O; Pip = O=C(O)[C@@H]1CCCCN1; Aze = O=C(O)[C@@H]1CCN1; βAla = NCCC(=O)O; Sar = CNCC(=O)O
T1: human Nectin-4 (human, UniProt Q96NY8 32-349)
T1 construct: a Gly32-Ser349 FLAG construct is described only under the SPR assay; also called PVRL4
T1 sequence (looked up): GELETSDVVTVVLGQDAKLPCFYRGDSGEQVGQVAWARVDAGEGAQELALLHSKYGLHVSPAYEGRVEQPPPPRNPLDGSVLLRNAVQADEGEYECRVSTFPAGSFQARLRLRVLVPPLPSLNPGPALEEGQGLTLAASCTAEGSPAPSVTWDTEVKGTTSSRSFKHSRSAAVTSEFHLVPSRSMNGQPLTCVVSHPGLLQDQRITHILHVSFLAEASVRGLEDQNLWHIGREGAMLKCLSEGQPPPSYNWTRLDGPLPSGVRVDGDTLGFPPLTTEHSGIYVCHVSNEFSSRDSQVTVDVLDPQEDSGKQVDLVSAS

T2: Human Nectin-4 (residues Gly32-Ser349) with C-terminal FLAG tag, biotinylated (human, UniProt Q96NY8 32-349, randomly biotinylated with EZ-Link Sulfo-NHS-LC-LC-Biotin)
T2 construct: range 32-349; Captured through biotin on a streptavidin CM5 chip in the SPR assay; also called PVRL4; not shown: C-terminal FLAG tag
T2 sequence (looked up): T1 sequence (looked up)

B1: BCY428 (peptide)
peptide: ACPFGCMKNWSWPIWCA
modifications: linker 2-6-16 via TATA
notes: Bicyclic peptide cyclised with TATA; also called 80-09-02-N002
B2: BCY7391 (peptide)
peptide: Ac-CPFGCMKNWSWPIWCTNK
modifications: linker 1-5-15 via TATA
notes: Bicyclic peptide cyclised with TATA; also called 80-09-02-T01-N011
B3: BCY7390 (peptide)
peptide: Ac-CPFGCMKNWSWPIWC
modifications: linker 1-5-15 via TATA
notes: Bicyclic peptide cyclised with TATA; also called 80-09-02-N008

Biological target: T1, human Nectin-4
Assay: FP competition, tracer SEQ ID NO 217
Experimental: Peptides were diluted to an appropriate concentration in assay buffer as described in the direct binding assay with a maximum of 5% DMSO, then serially diluted 1 in 2. […] Measurements were conducted as for the direct binding assay, however the gain was determined prior to the first measurement. Data analysis was in Systat Sigmaplot version 12.0 where the mP values were fit to a user defined cubic equation to generate a Ki value: […]

| Ki [nM] | Binder |
| --- | --- |
| 73 | Ac-CPFGCMKNWSW[Aze]IWC (linker 1-5-15 via TATA) [BCY7594] |
| 224 | XACPFGCMKNWSWPIWCA (N-terminal X = 44BPA (4,4-biphenylalanine); TATA on 3 Cys, also called 80-09-02-N012) [BCY7521] |
| 28.5 | XACPFGCMKNWSWPIWCA (N-terminal X = 2-Nal; TATA on 3 Cys, also called 80-09-02-N010) [BCY7421] |
| 219 | Ac-CPFGCMKNWSW[Pip]IWC (linker 1-5-15 via TATA) [BCY7595] |
| 282 | ACPFGCMKNWSWP[dA]WCTNK (linker 2-6-16 via TATA) [BCY7365] |
| 10 | ACPF[dA]CMKNWSWPIWCTNK (linker 2-6-16 via TATA) [BCY7350] |
| 232 | Ac-CVTTSYDCWVTLGHCSRF (linker 1-8-15 via TATA) |
| 72.6 | ACPFGCXKNWSWPIWCTNK (core CPFGC(Nle)KNWSWPIWC (printed (NIe)); TATA on 3 Cys, also called 80-09-02-T01-N041) [BCY7372] |
| 13.3 | Ac-CPFGCMKNWSWPIWCTNK (linker 1-5-15 via TATA, also called 80-09-02-T01-N011) |
| 160 | ACPFGCM[dA]NWSWPIWCTNK (linker 2-6-16 via TATA) [BCY7359] |
| 37.4 | Ac-CPFGCMKNWS[2Nal]PIWC (linker 1-5-15 via TATA) [BCY7592] |
| 180 | Ac-CPFGCMKNWS[1Nal]PIWC (linker 1-5-15 via TATA) [BCY7591] |
| 63.6 | XACPFGCMKNWSWPIWCA (N-terminal X = 1-Nal; TATA on 3 Cys, also called 80-09-02-N009) [BCY7420] |
| 132 | ACAFGCMKNWSWPIWCTNK (linker 2-6-16 via TATA, also called 80-09-02-T01-N022) [BCY7352] |
| 43.4 | ACPFGCMANWSWPIWCTNK (linker 2-6-16 via TATA, also called 80-09-02-T01-N026) [BCY7356] |
| 26.3 | ACPFGCMKNWSWPIWC[dA]NK (linker 2-6-16 via TATA) [BCY7367] |
| 884 | ACPFACMKNWSWPIWCTNK (linker 2-6-16 via TATA, also called 80-09-02-T01-N020) [BCY7354] |
| 45.2 | ACPFGCMKAWSWPIWCTNK (linker 2-6-16 via TATA, also called 80-09-02-T01-N027) [BCY7357] |
| 144 | AC[dA]FGCMKNWSWPIWCTNK (linker 2-6-16 via TATA) [BCY7370] |
| 68.2 | ACPFGCMK[dA]WSWPIWCTNK (linker 2-6-16 via TATA) [BCY7360] |
| 69 | Q[dK]WCAPLSDYWCNRICA (linker 4-12-16 via TATA) [BCY7426] |

Biological target: T2, Human Nectin-4 (residues Gly32-Ser349) …
Assay: SPR (Biacore), biotinylated human Nectin-4 on streptavidin chip
Experimental: Biacore experiments were performed to determine kₐ (M⁻¹s⁻¹), kd (s⁻¹), KD (nM) values of monomeric peptides binding to human Necin-4 protein (obtained from Charles River).
For analysis of peptide binding, a Biacore 3000 instrument was used utilising a CM5 chip (GE Healthcare). Streptavidin was immobilized on the chip using standard amine-coupling chemistry at 25° C. with HBS-N (10 mM HEPES, 0.15 M NaCl, pH 7.4) as the running buffer. Briefly, the carboxymethyl dextran surface was activated with a 7 minute injection of a 1:1 ratio of 0.4 M 1-ethyl-3-(3-dimethylaminopropyl) carbodiimide hydrochloride (EDC)/0.1 M N-hydroxy succinimide (NHS) at a flow rate of 10 μl/min. For capture of streptavidin, the protein was diluted to 0.2 mg/ml in 10 mM sodium acetate (pH 4.5) and captured by injecting 120 μl of streptavidin onto the activated chip surface. Residual activated groups were blocked with a 7 minute injection of 1 M ethanolamine (pH 8.5) and biotinylated Nectin-4 captured to a level of 1,200-1,800 RU. Buffer was changed to PBS/0.05% Tween 20 and a dilution series of the peptides was prepared in this buffer with a final DMSO concentration of 0.5%. The top peptide concentration was 100 nM with 6 further 2-fold dilutions. The SPR analysis was run at 25° C. at a flow rate of 50 μl/min with 60 seconds association and dissociation between 400 and 1,200 seconds depending upon the individual peptide. Data were corrected for DMSO excluded volume effects. All data were double-referenced for blank injections and reference surface using standard processing procedures and data processing and kinetic fitting were performed using Scrubber software, version 2.0c (BioLogic Software). Data were fitted using simple 1:1 binding model allowing for mass transport effects where appropriate.

| Kd [nM] | Binder |
| --- | --- |
| 1.81 | Ac-CP[1Nal][dR]CM[Agb]DWSTP[Hyp]WC (linker 1-5-15 via TATA, Bicyclic peptide cyclised with TATA) [BCY8192] |
| 44.5 | Ac-CPF[dD]CL[hArg]NWSTPPWC (linker 1-5-15 via TATA, Bicyclic peptide cyclised with TATA) [BCY8038] |
| 0.96 | Ac-CP[1Nal][dD]CMPDWSTP[Hyp]WC (linker 1-5-15 via TATA, Bicyclic peptide cyclised with TATA) [BCY8182] |
| 3.88 | [βAla][Sar][Sar][Sar][Sar][Sar][Sar][Sar][Sar][Sar][Sar]CP[1Nal][dD]CMKDWSTP[Hyp]WC (linker 12-16-26 via TATA, Bicyclic peptide cyclised with TATA) [BCY8238] |
| 35.7 | Ac-QKWCAPLSDYWCNRIC (linker 4-12-16 via TATA, Bicyclic peptide cyclised with TATA) [BCY7392] |
| 334 | B1 |
| 59.8 | B2 |
| 1.84 | Ac-CP[1Nal][dD]CM[hArg]DWSTPIWC (linker 1-5-15 via TATA, Bicyclic peptide cyclised with TATA) [BCY8127] |
| 0.56 | Ac-CP[1Nal][dR]CM[hArg]DWSTP[Hyp]WC (linker 1-5-15 via TATA, Bicyclic peptide cyclised with TATA) [BCY8184] |
| 0.61 | Ac-CP[1Nal][dCya]CM[hArg]DWSTP[Hyp]WC (linker 1-5-15 via TATA, Bicyclic peptide cyclised with TATA) [BCY8163] |
| 2.66 | {Ac-βAla}-[Sar][Sar][Sar][Sar][Sar]CP[1Nal][dD]CM[hArg]DWSTPIWC (linker 6-10-20 via TATA, Bicyclic peptide cyclised with TATA) [BCY8123] |
| 7.32 | Ac-CP[1Nal][dD]CL[hArg]DWSTPIWC (linker 1-5-15 via TATA, Bicyclic peptide cyclised with TATA) [BCY8211] |
| 1.71 | Ac-CP[1Nal][dD]CM[hArg]NWSTPIWC (linker 1-5-15 via TATA, Bicyclic peptide cyclised with TATA) [BCY8030] |
| 0.89 | {Ac-βAla}-[Sar][Sar][Sar][Sar][Sar]CP[1Nal][dD]CM[hArg]DWSTP[Hyp]WC (linker 6-10-20 via TATA, Bicyclic peptide cyclised with TATA) [BCY8122] |
| 0.87 | Ac-CP[1Nal][dR]CM[hArg]HWSTP[Hyp]WC (linker 1-5-15 via TATA, Bicyclic peptide cyclised with TATA) [BCY8129] |
| 0.53 | {Ac-βAla}-[Sar][Sar][Sar][Sar][Sar]CP[1Nal][dD]CM[hArg]HWSTP[Hyp]WC (linker 6-10-20 via TATA, Bicyclic peptide cyclised with TATA) [BCY8121] |
| 2.42 | Ac-CP[1Nal][dD]CL[hArg]DWSTP[Hyp]WC (linker 1-5-15 via TATA, Bicyclic peptide cyclised with TATA) [BCY8212] |
| 0.54 | Ac-CP[1Nal][dR]CL[hArg]HWSTP[Hyp]WC (linker 1-5-15 via TATA, Bicyclic peptide cyclised with TATA) [BCY8214] |
| 1.95 | Ac-CP[1Nal][dR]CL[hArg]DWSTP[Hyp]WC (linker 1-5-15 via TATA, Bicyclic peptide cyclised with TATA) [BCY8213] |
| 0.69 | Ac-CP[1Nal][dD]CM[hArg]NWSTP[Hyp]WC (linker 1-5-15 via TATA, Bicyclic peptide cyclised with TATA) [BCY8124] |
| 0.52 | Ac-CP[1Nal][dD]CM[hArg]HWSTP[Hyp]WC (linker 1-5-15 via TATA, Bicyclic peptide cyclised with TATA) [BCY8125] |
| 0.67 | {Ac-βAla}-[Sar][Sar][Sar][Sar][Sar]CP[1Nal][dD]CM[hArg]NWSTP[Hyp]WC (linker 6-10-20 via TATA, Bicyclic peptide cyclised with TATA) [BCY8120] |
| 1.06 | Ac-CP[1Nal][dR]CM[hArg]NWSTP[Hyp]WC (linker 1-5-15 via TATA, Bicyclic peptide cyclised with TATA) [BCY8128] |
| 40.3 | B3 |
| 1380 | Ac-CVTTSYDCWVTLGHCSRF (linker 1-8-15 via TATA, Bicyclic peptide cyclised with TATA) |
| 47 | CPF[dD]CM[hArg]NWSTPIWC (linker 1-5-15 via TATA, Bicyclic peptide cyclised with TATA) [BCY7793] |
| 14.9 | {Ac-βAla}-[Sar][Sar][Sar][Sar][Sar]CPF[dA]CM[hArg]NWSWPIWC (linker 6-10-20 via TATA, Bicyclic peptide cyclised with TATA) [BCY7559] |

From patent US20210269480A1 (published 2021)
